Data: patent US20100036111
Read-outs that look alike come from different tables or passages of the source.

Experiments:
[1] = molecular target: Klenow fragment exo- (KF exo-) (UniProt P00582); conditions: n=Ds (7-(2-thienyl)-imidazo[4,5-b]pyridine); dPa'TP insertion Vmax/KM; 10 mM MgCl2 pH 7.5 37C
[2] = molecular target: Klenow fragment exo- (KF exo-) (UniProt P00582); conditions: n=Pa' (4-propynylpyrrole-2-carbaldehyde); dDsTP insertion Vmax/KM; 10 mM MgCl2 pH 7.5 37C
[3] = molecular target: Klenow fragment exo- (KF exo-) (UniProt P00582); conditions: n=Pa (pyrrole-2-carbaldehyde); dDsTP insertion; Vmax/KM as printed (KM 26 uM and Vmax 28 imply 1.1e6); 10 mM MgCl2 pH 7.5 37C

Chain of Klenow fragment exo- (KF exo-) (P00582 324-928): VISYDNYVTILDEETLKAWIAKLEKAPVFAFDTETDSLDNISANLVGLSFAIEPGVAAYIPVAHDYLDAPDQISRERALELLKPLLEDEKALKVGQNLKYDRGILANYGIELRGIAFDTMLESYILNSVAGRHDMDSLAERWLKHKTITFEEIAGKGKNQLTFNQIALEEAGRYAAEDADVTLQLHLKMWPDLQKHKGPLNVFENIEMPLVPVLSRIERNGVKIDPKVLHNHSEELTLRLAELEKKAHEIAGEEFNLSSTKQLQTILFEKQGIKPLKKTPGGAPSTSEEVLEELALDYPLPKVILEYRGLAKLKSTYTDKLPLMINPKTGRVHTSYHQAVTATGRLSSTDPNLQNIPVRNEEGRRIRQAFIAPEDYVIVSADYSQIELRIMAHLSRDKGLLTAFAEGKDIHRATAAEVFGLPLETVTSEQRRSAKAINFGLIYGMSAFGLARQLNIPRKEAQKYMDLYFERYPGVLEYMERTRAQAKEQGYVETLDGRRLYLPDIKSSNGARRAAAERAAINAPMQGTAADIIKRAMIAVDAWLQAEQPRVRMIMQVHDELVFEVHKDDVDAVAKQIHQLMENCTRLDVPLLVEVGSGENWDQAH

## AGCTCTNTCTTCCTCCCTATAGTGAGTCGTATTAT / ACTCACTATAGGGAGGAAGA [temp35Ds-1/primer]
[1]
  activity: 260000 %/min/M

## TCGAGANAGAAGCTCCCTATAGTGAGTCGTATTAT / ACTCACTATAGGGAGCTTCT [temp35Pa'-2/primer]
[2]
  activity: 880000 %/min/M

## TCGAGANAGAAGCTCCCTATAGTGAGTCGTATTAT / ACTCACTATAGGGAGCTTCT [temp35Pa-2/primer]
[3]
  activity: 11000 %/min/M
